Test results from patent US11872270B2, “A*03 restricted peptides for use in immunotherapy against cancers and related methods” (Immatics Biotechnologies GmbH, priority 2018, dated 2024).

What follows are substances tested against HLA-A*03:01 (Homo sapiens, UniProt P04439) (assay: MHC binding assay (UV-ligand exchange, β2m ELISA)). Settings: binding to HLA-A*03:01, UV-ligand exchange, β2m ELISA.
Text: Candidate peptides for T cell based therapies according to the present invention were further tested for their MHC binding capacity (affinity). The individual peptide-MHC complexes were produced by UV-ligand exchange, where a UV-sensitive peptide is cleaved upon UV-irradiation and exchanged with the peptide of interest as analyzed. Only peptide candidates that can effectively bind and stabilize the peptide-receptive MHC molecules prevent dissociation of the MHC complexes. To determine the yield of the exchange reaction, an ELISA was performed based on the detection of the light chain (β2m) of stabilized MHC complexes. The assay was performed as generally described in Rodenko et al. (Rodenko et al., 2006) 96 well MAXISorp plates (NUNC) were coated over night with 2 ug/ml streptavidin in PBS at room temperature, washed 4× and blocked for 1 h at 37° C. in 2% BSA containing blocking buffer. Refolded HLA-A*02:01/MLA-001 monomers served as standards, covering the range of 15-500 ng/ml. Peptide-MHC monomers of the UV-exchange reaction were diluted 100-fold in blocking buffer. Samples were incubated for 1 h at 37° C., washed four times, incubated with 2 ug/ml HRP conjugated anti-β2m for 1 h at 37° C., washed again and detected with TMB solution that is stopped with […]. Absorption was measured at 450 nm. Candidate peptides that show a high exchange yield (preferably higher than 50%, most preferred higher than 75%) are generally preferred for a generation and production of antibodies or fragments thereof, and/or T cell receptors or fragments thereof, as they show sufficient avidity to the MHC molecules and prevent dissociation of the MHC complexes.

Row | Peptide exchange (MHC class I binding score, peptide exchange yield) | Substance
1 | +++ (>50 = +++) | 153 (LASSPAGHK; listed as Homo sapiens) [compound 153]
2 | ++ (>20% = ++) | 154 (TIASVLVAR; listed as Homo sapiens) [compound 154]
3 | ++ (>20% = ++) | 156 (VSLGIAVSK; listed as Homo sapiens) [compound 156]
4 | ++++ (>75% = ++++) | 158 (RALGVPFVPR; listed as Homo sapiens) [compound 158]
5 | ++++ (>75% = ++++) | 160 (RLLPGKVVWK; listed as Homo sapiens) [compound 160]
6 | ++ (>20% = ++) | 161 (MKTLPAMLGTGK; listed as Homo sapiens) [compound 161]
7 | ++++ (>75% = ++++) | 163 (MLYYPSVSR; listed as Homo sapiens) [compound 163]
8 | ++++ (>75% = ++++) | 164 (RLAQYTIER; listed as Homo sapiens) [compound 164]
9 | + (>10% = +) | 165 (AATIISSAK; listed as Homo sapiens) [compound 165]
10 | ++++ (>75% = ++++) | 168 (ATNGKVLKK; listed as Homo sapiens) [compound 168]
11 | ++++ (>75% = ++++) | 169 (ATNGKVLKKR; listed as Homo sapiens) [compound 169]
12 | ++++ (>75% = ++++) | 171 (ATIGLSVSK; listed as Homo sapiens) [compound 171]
13 | +++ (>50 = +++) | 172 (SLLEADPFLK; listed as Homo sapiens) [compound 172]
14 | +++ (>50 = +++) | 173 (VSYNRLIK; listed as Homo sapiens) [compound 173]
15 | ++++ (>75% = ++++) | 174 (KMMKRLMTVEK; listed as Homo sapiens) [compound 174]
16 | +++ (>50 = +++) | 175 (VIGTTSSPK; listed as Homo sapiens) [compound 175]
17 | ++++ (>75% = ++++) | 176 (RLYDAYVNR; listed as Homo sapiens) [compound 176]
18 | ++++ (>75% = ++++) | 177 (ALLGVIIAKK; listed as Homo sapiens) [compound 177]
19 | +++ (>50 = +++) | 178 (RIYVYVKRK; listed as Homo sapiens) [compound 178]
20 | +++ (>50 = +++) | 179 (KINPTASLK; listed as Homo sapiens) [compound 179]
21 | ++++ (>75% = ++++) | 180 (RLKMAQESVSK; listed as Homo sapiens) [compound 180]
22 | +++ (>50 = +++) | 181 (RVAEEILIK; listed as Homo sapiens) [compound 181]
23 | ++++ (>75% = ++++) | 182 (QICLPAIYK; listed as Homo sapiens) [compound 182]
24 | ++++ (>75% = ++++) | 183 (KVYIPPIINK; listed as Homo sapiens) [compound 183]
25 | +++ (>50 = +++) | 184 (KVLEPPLGAR; listed as Homo sapiens) [compound 184]

Row | Peptide exchange (MHC class I binding score, peptide exchange yield) | Substance
26 | +++ (>50 = +++) | 185 (SIINFKPLTY; listed as Homo sapiens) [compound 185]
27 | ++++ (>75% = ++++) | 187 (KTCQVSGLLY; listed as Homo sapiens) [compound 187]
28 | ++ (>20% = ++) | 188 (SSLPRAFQK; listed as Homo sapiens) [compound 188]
29 | ++ (>20% = ++) | 189 (KVFEEPEDFLK; listed as Homo sapiens) [compound 189]
30 | ++++ (>75% = ++++) | 190 (RSKWSNVFK; listed as Homo sapiens) [compound 190]
31 | ++++ (>75% = ++++) | 191 (SLYNLGGAK; listed as Homo sapiens) [compound 191]
32 | ++++ (>75% = ++++) | 192 (RSYSHVVLK; listed as Homo sapiens) [compound 192]
33 | +++ (>50 = +++) | 193 (IVYPSATDKTK; listed as Homo sapiens) [compound 193]
34 | ++++ (>75% = ++++) | 195 (KLQAKVLQY; listed as Homo sapiens) [compound 195]
35 | ++++ (>75% = ++++) | 196 (AISSTVLGK; listed as Homo sapiens) [compound 196]
36 | ++++ (>75% = ++++) | 197 (RIVDYLLEK; listed as Homo sapiens) [compound 197]
37 | ++++ (>75% = ++++) | 199 (IVFPDVISK; listed as Homo sapiens) [compound 199]
38 | ++++ (>75% = ++++) | 200 (RVLPPLTRILK; listed as Homo sapiens) [compound 200]
39 | ++++ (>75% = ++++) | 201 (KVADFGLARLLK; listed as Homo sapiens) [compound 201]
40 | +++ (>50 = +++) | 202 (RLFPGLYLGY; listed as Homo sapiens) [compound 202]
41 | ++++ (>75% = ++++) | 203 (IVAFIPLSNK; listed as Homo sapiens) [compound 203]
42 | ++++ (>75% = ++++) | 204 (VAFIPLSNK; listed as Homo sapiens) [compound 204]
43 | ++++ (>75% = ++++) | 205 (RVYPRPPSK; listed as Homo sapiens) [compound 205]
44 | ++++ (>75% = ++++) | 206 (RLYEMILQR; listed as Homo sapiens) [compound 206]
45 | ++++ (>75% = ++++) | 208 (KTGWFTLLY; listed as Homo sapiens) [compound 208]
46 | ++++ (>75% = ++++) | 209 (KILDRVLSRY; listed as Homo sapiens) [compound 209]
47 | ++++ (>75% = ++++) | 210 (KIFQGQINK; listed as Homo sapiens) [compound 210]
48 | +++ (>50 = +++) | 211 (VSLGTPIMK; listed as Homo sapiens) [compound 211]
49 | ++++ (>75% = ++++) | 212 (RTIDRSVFK; listed as Homo sapiens) [compound 212]
50 | ++++ (>75% = ++++) | 213 (KLYPTHACR; listed as Homo sapiens) [compound 213]
